Data on eleven molecules can be found in paper PMC10801562 (Antibodies, 2024).

Holding throughout (settings): both partners purified
Assay [1] addresses T1, recombinant human HER2 (Sino Biological, 10004-H08H) (Homo sapiens, UniProt P04626).
T1 construct: human epidermal growth factor receptor 2 (HER2), recombinant; also called human epidermal growth factor receptor 2; source: bought: Sino Biological
Briefly: SPR; Biacore T200, 37 °C, pH 7.4, PB-P+ (0.05 mol/L Na-phosphate, 0.15 mol/L NaCl, 0.05% P-20); antibody captured (200 RU) by anti-mouse IgG (Fc) antibody on a CM4 chip; human HER2 as analyte, 6.3-100 nmol/L; 1:1 binding model.

In assay [2] the target is T2, recombinant human CD3ε-CD3δ heterodimeric protein (CD3εδ) (Homo sapiens).
T2 construct: human CD3ε of the recombinant CD3εδ heterodimer; human CD3δ of the recombinant CD3εδ heterodimer; source: in-house prepared
T2 chain 1: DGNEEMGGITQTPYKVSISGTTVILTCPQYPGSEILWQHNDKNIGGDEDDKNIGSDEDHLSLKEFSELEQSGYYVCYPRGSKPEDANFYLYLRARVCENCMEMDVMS
T2 chain 2: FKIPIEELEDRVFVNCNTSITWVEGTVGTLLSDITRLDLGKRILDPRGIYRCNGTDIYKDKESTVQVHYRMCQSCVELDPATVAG
Nature of the assay: SPR; Biacore T200, 37 °C, pH 7.4, PB-P+; antibody captured (630 RU) by anti-mouse IgG (Fc) antibody on a CM4 chip; human CD3εδ as analyte, 1.2-4800 nmol/L; 1:1 binding model (mUCHT1, mSP34).

For assay [3], the target named is T2, recombinant human CD3ε-CD3δ …. Briefly: SPR; Biacore T200, 37 °C, pH 7.4, PB-P+; antibody captured (630 RU) by anti-mouse IgG (Fc) antibody on a CM4 chip; human CD3εδ as analyte, 18.8-19,200 nmol/L (mHIT3a, mOKT3) or 75-76,800 nmol/L (m12F6); steady state model.

Substitutions are numbered along the chain they refer to.

B1: m4D5 mIgG2a, homodimeric antibody without FAST-Ig mutations (antibody, V domains shown)
VH: QVQLQQSGPELVKPGASLKLSCTASGFNIKDTYIHWVKQRPEQGLEWIGRIYPTNGYTRYDPKFQDKATITADTSSNTAYLQVSRLTSEDTAVYYCSRWGGDGFYAMDYWGQGASVTVSS
VL: DIVMTQSHKFMSTSVGDRVSITCKASQDVNTAVAWYQQKPGHSPKLLIYSASFRYTGVPDRFTGSRSGTDFTFTISSVQAEDLAVYYCQQHYTTPPTFGGGTKVEIK
notes: VH of the original mouse antibody m4D5; mouse IgG2a (mIgG2a) heavy chain constant region; numbers count on: Eu numbering; VL of m4D5; mouse kappa light chain constant region (CL); Whole IgG of one HC and one LC; also called anti-HER2; H1L1H1L1; source: Expi293F, transiently expressed, purified (Ab-Capcher MAG2, MonoSpin ProA or MonoSpin ProG); copies: 2 + 2
On to B1, for which, in assay [1], the Kd came out at 0.00114 µM.

B2: m4D5 mIgG2a V1+C19, homodimeric antibody with FAST-Ig V1+C19 mutations (antibody, V domains shown)
VH: B1 VH with Q39K
VL: B1 VL with Q38E
notes: VH of m4D5; mouse IgG2a (mIgG2a) heavy chain constant region; K147 kept; numbers count on: Eu numbering; VL of m4D5; mouse kappa light chain constant region (CL); numbers count on: Kabat numbering; Whole IgG of one HC and one LC; also called anti-HER2; H1L1H1L1; source: Expi293F, transiently expressed, purified (Ab-Capcher MAG2, MonoSpin ProA or MonoSpin ProG); copies: 2 + 2
Turning to B2, the Kd in assay [1] was determined as 0.00096 µM.

B3: m4D5 mIgG1 V1+C19, homodimeric antibody with FAST-Ig V1+C19 mutations (antibody, V domains shown)
VH: B1 VH with Q39K
VL: B1 VL with Q38E
notes: VH of m4D5; mouse IgG1 (mIgG1) heavy chain constant region; K147 kept; numbers count on: Eu numbering; VL of m4D5; mouse kappa light chain constant region (CL); numbers count on: Kabat numbering; Whole IgG of one HC and one LC; also called anti-HER2; H1L1H1L1; source: Expi293F, transiently expressed, purified (Ab-Capcher MAG2 or MonoSpin ProG); copies: 2 + 2
On to B3, for which the Kd in assay [1] stood at 0.00127 µM.

B4: mSP34 mIgG1 V1+C19, homodimeric antibody with FAST-Ig V1+C19 mutations (antibody, V domains shown)
VH: EVQLVESGGGLVQPKGSLKLSCAASGFTFNTYAMNWVREAPGKGLEWVARIRSKYNNYATYYADSVKDRFTISRDDSQSILYLQMNNLKTEDTAMYYCVRHGNFGNSYVSWFAYWGQGTLVTVSA
VL: QAVVTQESALTTSPGETVTLTCRSSTGAVTTSNYANWVQKKPDHLFTGLIGGTNKRAPGVPARFSGSLIGDKAALTITGAQTEDEAIYFCALWYSNLWVFGGGTKLTVL
notes: VH of mSP34; mouse IgG1 (mIgG1) heavy chain constant region; numbers count on: Eu numbering; VL (lambda) of mSP34; mouse lambda light chain constant region (CL); numbers count on: Kabat numbering; Whole IgG of one HC and one LC; also called anti-CD3; H2L2H2L2; source: Expi293F, transiently expressed, purified (Ab-Capcher MAG2 or MonoSpin ProG); copies: 2 + 2
Turning to B4, the Kd in assay [2] came out at 0.0569 µM.

B5: mSP34 mIgG2a, homodimeric antibody without FAST-Ig mutations (antibody, V domains shown)
VH: B4 VH with E39Q
VL: B4 VL with K40E
notes: VH of the original mouse antibody mSP34; mouse IgG2a (mIgG2a) heavy chain constant region; numbers count on: Eu numbering; VL (lambda) of the original mouse antibody mSP34; mouse lambda light chain constant region (CL); Whole IgG of one HC and one LC; also called anti-CD3; H2L2H2L2; source: Expi293F, transiently expressed, purified (Ab-Capcher MAG2, MonoSpin ProA or MonoSpin ProG); copies: 2 + 2
As for B5, the Kd in assay [2] came to 0.016 µM.

B6: mOKT3 mIgG1 V1+C19, homodimeric antibody with FAST-Ig V1+C19 mutations (antibody, V domains shown)
VH: not shown
VL: QIVLTQSPAIMSASPGEKVTMTCSASSSVSYMNWYQKKSGTSPKRWIYDTSKLASGVPAHFRGSGSGTSYSLTISGMEAEDAATYYCQQWSSNPFTFGSGTKLEIN
notes: VH of mOKT3; mouse IgG1 (mIgG1) heavy chain constant region; numbers count on: Eu numbering; VL of mOKT3; mouse kappa light chain constant region (CL); numbers count on: Kabat numbering; Whole IgG of one HC and one LC; also called anti-CD3; H2L2H2L2; source: Expi293F, transiently expressed, purified (Ab-Capcher MAG2 or MonoSpin ProG); copies: 2 + 2
For B6, the Kd in assay [3] worked out at 4.48 µM.

B7: mHIT3a mIgG1, homodimeric antibody without FAST-Ig mutations (antibody, V domains shown)
VH: QVQLQESGAELARPGASVKMSCKASGYTFTRYTMHWVKQRPGQGLEWIGYINPSRGYTNYNQKFKDKATLTTDKSSSTAYMELTRLTSEDSAVYYCARYYDDHYCLDYWGQGTTVTVSS
VL: B6 VL with Q1D, V3E, K37Q, H60R, R62S, I105L, N106K
notes: VH of the original mouse antibody mHIT3a; mouse IgG1 (mIgG1) heavy chain constant region; numbers count on: Eu numbering; VL of the original mouse antibody mHIT3a; mouse kappa light chain constant region (CL); Whole IgG of one HC and one LC; also called anti-CD3; H2L2H2L2; source: Expi293F, transiently expressed, purified (Ab-Capcher MAG2 or MonoSpin ProG); copies: 2 + 2
In the case of B7, the Kd in assay [3] amounted to 7.54 µM.

B8: mOKT3 mIgG2a V1+C19, homodimeric antibody with FAST-Ig V1+C19 mutations (antibody, V domains shown)
VH: not shown
VL: B6 VL
notes: VH of mOKT3; mouse IgG2a (mIgG2a) heavy chain constant region; numbers count on: Eu numbering; VL of mOKT3; mouse kappa light chain constant region (CL); numbers count on: Kabat numbering; Whole IgG of one HC and one LC; also called anti-CD3; H2L2H2L2; source: Expi293F, transiently expressed, purified (Ab-Capcher MAG2, MonoSpin ProA or MonoSpin ProG); copies: 2 + 2
Turning to B8, in assay [3], the Kd amounted to 7.68 µM.

B9: mHIT3a mIgG1 V1+C19, homodimeric antibody with FAST-Ig V1+C19 mutations (antibody, V domains shown)
VH: B7 VH with Q39E
VL: B6 VL with Q1D, V3E, H60R, R62S, I105L, N106K
notes: VH of mHIT3a; mouse IgG1 (mIgG1) heavy chain constant region; numbers count on: Eu numbering; VL of mHIT3a; mouse kappa light chain constant region (CL); numbers count on: Kabat numbering; Whole IgG of one HC and one LC; also called anti-CD3; H2L2H2L2; source: Expi293F, transiently expressed, purified (Ab-Capcher MAG2 or MonoSpin ProG); copies: 2 + 2
For B9, the Kd in assay [3] amounted to 8.32 µM.

B10: mHIT3a mIgG2a V1+C19, homodimeric antibody with FAST-Ig V1+C19 mutations (antibody, V domains shown)
VH: B7 VH with Q39E
VL: B6 VL with Q1D, V3E, H60R, R62S, I105L, N106K
notes: VH of mHIT3a; mouse IgG2a (mIgG2a) heavy chain constant region; numbers count on: Eu numbering; VL of mHIT3a; mouse kappa light chain constant region (CL); numbers count on: Kabat numbering; Whole IgG of one HC and one LC; also called anti-CD3; H2L2H2L2; source: Expi293F, transiently expressed, purified (Ab-Capcher MAG2, MonoSpin ProA or MonoSpin ProG); copies: 2 + 2
B10: the Kd in assay [3] is 10.4 µM.

B11: mHIT3a mIgG2a, homodimeric antibody without FAST-Ig mutations (antibody, V domains shown)
VH: B7 VH
VL: B6 VL with Q1D, V3E, K37Q, H60R, R62S, I105L, N106K
notes: VH of the original mouse antibody mHIT3a; mouse IgG2a (mIgG2a) heavy chain constant region; numbers count on: Eu numbering; VL of the original mouse antibody mHIT3a; mouse kappa light chain constant region (CL); Whole IgG of one HC and one LC; also called anti-CD3; H2L2H2L2; source: Expi293F, transiently expressed, purified (Ab-Capcher MAG2, MonoSpin ProA or MonoSpin ProG); copies: 2 + 2
In the case of B11, the Kd in assay [3] amounted to 10.4 µM.
